Literature values, collected in PMC3589724 (Scientific Reports, 2013).
Positions count from the first letter of the chain named. Names and notes keep the numbering of the source.

B1: S41A Nm mutant: Nm point mutant S41A (literature) (protein, UniProt P06837 1-227, looked up, variant S41A)
Neuromodulin: MLCCMRRTKQVEKNDEDQKIEQDGVKPEDKAHKAATKIQAAFRGHITRKKLKGEKKGDAPAAEAEAKEKDDAPVADGVEKKEGDGSATTDAAPATSPKAEEPSKAGDAPSEEKKGEGDAAPSEEKAGSAETESAAKATTDNSPSSKAEDGPAKEEPKQADVPAAVTDAAATTPAAEDAATKAAQPPTETAESSQAEEEKDAVDEAKPKESARQDEGKEDPEADQEHA
B2: Phe-to-Trp substitution: Nm with Phe-to-Trp substitution at Phe42 (literature) (protein, UniProt P06837 1-227, looked up, variant F42W)
Neuromodulin: B1 Neuromodulin with A41S, F42W

Assays:
CaM [1] = details: in vitro, PC12B cells
CaM [2] = details: position Phe42

Molecule	Ca^2+ sensitivity of interaction with CaM (CaM [1])	association of Nm with the membrane skeleton (PC12B cells)	increase in Nm-CaM affinity on Phe-to-Trp substitution (CaM [2])
B1	insensitive to Ca^2+ concentrations in vitro	inhibiting the association of Nm with the membrane skeleton of PC12B cells	–
B2	–	–	10 fold
